Data as given in patent US20220380728A1 (EAST CAROLINA UNIVERSITY, published 2022).

B1: PC61 anti-CD25 monoclonal antibody (PC61-5.3 hybridoma, rat IgG1, lambda) (antibody, V domains shown)
VH: QVQLQQSGAELVRPGTSVKLSCKVSGDTITAYYIHFVKQRPGQGLEWIGRIDPEDDSTEYAEKFKNKATITANTSSNTAHLKYSRLTSEDTATYFCTTDNMGATEFVYWGQGTLVTVSS
VL: QVVLTQPKSVSASLESTVKLSCKLNSGNIGSYYMHWYQQREGRSPTNLIYRDDKRPDGAPDRFSGSIDISSNSAFLTINNVQTEDEAMYFCHSYDGRMYIFGGGTKLTVLG
notes: also called PC61 mAb; anti-CD25 PC61 mAb

Experiments:
[1] = biological target: TGF-β produced by cells in the culture (mouse) (UniProt Q61315); assay: cell-based or functional assay
[2] = biological target: T1, murine CD25 (IL-2 receptor alpha chain) on mouse T cells (mouse, UniProt P01590 22-268); assay: flow cytometry on 2D2-FIG Tregs; loss of APC-conjugated PC61 staining
T1 construct: whole, on cells; Endogenous CD25 on cultured mouse Tregs and Tcons; also called IL-2Rα; surface CD25
T1 sequence (looked up): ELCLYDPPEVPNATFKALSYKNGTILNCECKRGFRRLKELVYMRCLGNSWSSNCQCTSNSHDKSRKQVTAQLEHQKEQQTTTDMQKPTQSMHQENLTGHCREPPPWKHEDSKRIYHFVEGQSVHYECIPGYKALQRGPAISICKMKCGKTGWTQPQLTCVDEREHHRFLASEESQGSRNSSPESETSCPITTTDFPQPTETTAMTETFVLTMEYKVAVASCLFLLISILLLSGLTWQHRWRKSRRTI

Chain of TGF-β produced by cells in the culture (mouse) (Q61315 whole entry): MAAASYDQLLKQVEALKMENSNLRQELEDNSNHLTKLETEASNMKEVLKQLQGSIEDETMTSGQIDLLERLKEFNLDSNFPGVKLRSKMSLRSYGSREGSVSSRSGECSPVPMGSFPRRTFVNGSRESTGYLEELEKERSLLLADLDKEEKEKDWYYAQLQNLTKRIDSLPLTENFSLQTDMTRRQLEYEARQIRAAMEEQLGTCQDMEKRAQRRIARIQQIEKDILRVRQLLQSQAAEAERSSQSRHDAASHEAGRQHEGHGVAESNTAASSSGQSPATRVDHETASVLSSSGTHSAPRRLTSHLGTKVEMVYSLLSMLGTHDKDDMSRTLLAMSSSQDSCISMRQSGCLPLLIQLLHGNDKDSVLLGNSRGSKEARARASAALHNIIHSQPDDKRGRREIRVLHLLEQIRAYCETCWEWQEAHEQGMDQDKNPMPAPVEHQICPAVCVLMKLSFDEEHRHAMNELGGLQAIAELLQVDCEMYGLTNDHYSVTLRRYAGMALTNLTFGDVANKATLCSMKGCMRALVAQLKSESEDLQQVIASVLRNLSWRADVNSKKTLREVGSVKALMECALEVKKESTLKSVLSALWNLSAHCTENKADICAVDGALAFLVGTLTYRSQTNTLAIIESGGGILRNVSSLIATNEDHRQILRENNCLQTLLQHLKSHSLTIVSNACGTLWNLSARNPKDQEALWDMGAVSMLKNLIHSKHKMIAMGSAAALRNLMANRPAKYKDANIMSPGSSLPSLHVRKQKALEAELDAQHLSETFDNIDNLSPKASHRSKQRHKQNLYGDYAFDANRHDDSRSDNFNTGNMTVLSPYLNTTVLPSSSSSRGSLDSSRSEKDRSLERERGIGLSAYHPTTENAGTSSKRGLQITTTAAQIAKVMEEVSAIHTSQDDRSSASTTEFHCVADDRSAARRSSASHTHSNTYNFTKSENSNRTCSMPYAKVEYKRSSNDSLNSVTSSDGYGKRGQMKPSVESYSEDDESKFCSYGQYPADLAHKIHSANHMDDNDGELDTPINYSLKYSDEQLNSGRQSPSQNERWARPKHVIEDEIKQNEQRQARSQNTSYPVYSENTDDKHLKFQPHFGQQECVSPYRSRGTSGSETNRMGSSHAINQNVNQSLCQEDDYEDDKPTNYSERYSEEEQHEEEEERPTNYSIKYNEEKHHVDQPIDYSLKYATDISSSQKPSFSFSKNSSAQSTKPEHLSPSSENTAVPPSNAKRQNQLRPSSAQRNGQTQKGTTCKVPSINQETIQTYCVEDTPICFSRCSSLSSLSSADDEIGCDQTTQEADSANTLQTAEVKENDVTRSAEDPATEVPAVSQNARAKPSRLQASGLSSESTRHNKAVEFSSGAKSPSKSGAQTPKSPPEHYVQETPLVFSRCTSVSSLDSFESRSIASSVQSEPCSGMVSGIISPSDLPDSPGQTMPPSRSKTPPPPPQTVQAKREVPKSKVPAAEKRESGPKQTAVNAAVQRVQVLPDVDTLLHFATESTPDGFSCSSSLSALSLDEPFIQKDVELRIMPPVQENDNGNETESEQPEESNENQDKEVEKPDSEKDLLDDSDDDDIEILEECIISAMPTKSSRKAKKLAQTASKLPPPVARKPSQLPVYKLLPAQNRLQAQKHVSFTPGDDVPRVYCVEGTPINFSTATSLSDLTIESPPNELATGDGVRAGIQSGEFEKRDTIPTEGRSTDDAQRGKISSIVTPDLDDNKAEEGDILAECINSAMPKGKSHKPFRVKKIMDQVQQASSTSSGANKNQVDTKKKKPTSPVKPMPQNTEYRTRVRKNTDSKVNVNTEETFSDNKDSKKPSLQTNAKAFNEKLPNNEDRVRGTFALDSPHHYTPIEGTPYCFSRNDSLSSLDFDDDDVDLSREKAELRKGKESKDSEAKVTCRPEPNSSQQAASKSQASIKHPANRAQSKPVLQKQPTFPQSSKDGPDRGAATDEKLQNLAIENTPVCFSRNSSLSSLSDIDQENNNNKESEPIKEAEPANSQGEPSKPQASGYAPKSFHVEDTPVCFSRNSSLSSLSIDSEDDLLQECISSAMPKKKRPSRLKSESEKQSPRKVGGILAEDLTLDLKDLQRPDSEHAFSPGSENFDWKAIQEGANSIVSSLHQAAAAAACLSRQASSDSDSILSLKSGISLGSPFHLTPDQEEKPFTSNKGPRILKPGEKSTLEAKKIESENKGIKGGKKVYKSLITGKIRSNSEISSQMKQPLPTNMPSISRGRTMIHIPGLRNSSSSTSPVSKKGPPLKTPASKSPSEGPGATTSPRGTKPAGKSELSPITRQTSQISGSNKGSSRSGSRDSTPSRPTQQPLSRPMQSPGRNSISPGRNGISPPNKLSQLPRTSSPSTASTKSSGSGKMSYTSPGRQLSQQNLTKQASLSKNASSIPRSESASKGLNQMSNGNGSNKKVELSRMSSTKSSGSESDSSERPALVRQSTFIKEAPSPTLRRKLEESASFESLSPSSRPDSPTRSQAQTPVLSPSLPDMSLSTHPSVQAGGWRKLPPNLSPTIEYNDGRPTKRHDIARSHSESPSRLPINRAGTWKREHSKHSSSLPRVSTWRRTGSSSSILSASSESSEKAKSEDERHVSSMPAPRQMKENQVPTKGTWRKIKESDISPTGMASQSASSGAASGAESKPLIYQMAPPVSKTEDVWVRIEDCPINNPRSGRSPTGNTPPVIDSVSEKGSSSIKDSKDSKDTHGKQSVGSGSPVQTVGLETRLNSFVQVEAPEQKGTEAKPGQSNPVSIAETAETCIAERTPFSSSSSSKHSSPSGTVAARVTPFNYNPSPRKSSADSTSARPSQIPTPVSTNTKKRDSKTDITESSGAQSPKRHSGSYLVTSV

Row | FOXP3+ Treg percentages during secondary activation (1D11 at 50 µg/ml) [1] | binding result [2] | Molecule
1 | < 50% |  | 1D11.16.8 anti-mouse-TGF-β1/2/3 monoclonal antibody (mouse IgG1)
2 |  | binds | B1
